In a protein production outcome set (Wang et al. 2014):

Test: label from the status in PepcDB records

| Sequence | protein production |
| --- | --- |
| MSLSEIKHWVFDMDGTLTIAVHDFAAIREALSIPAEDDILTHLAALPADESAAKHAWLLEHERDLAQGSRPAPGAVELVRELAGRGYRLGILTRNARELAHVTLEAIGLADCFAEADVLGRDEAPPKPHPGGLLKLAEAWDVSPSRMVMVGDYRFDLDCGRAAGTRTVLVNLPDNPWPELTDWHARDCAQLRDLLSAEGHHHHHH | not failed |
| MAGCGANDTSSTKEKASSEKSGVTKEITASVNKMETIISKLNDSVEKGDQKEIEKKGKELNSYWLSFENDIRSDYPFEYTEIEKHLQPIYTEAQKDKPDAGKIKTESESLKASLEDLTEAKKSGKKASDQLAKAADEYKGYVKEQSDQLVKATEAFTGAVKSGDIEKSKTLYAKARVYYERIEPIAESLGDLDPKIDARENDVEEGDKWTGFHKLEKAIWKDQDISGEKATADQLLKDVKELDGSIQSLKLTPEQIVAGAMELLNEAGISKITGEEERYSRIDLVDLMANVEGSEAVYQTVKSALVKDHSDLTEKLDTEFSEFEVLMAKYKTNDQSYTSYDKLSEKQIRELSTKLTTLSETMSKIANVLLEHHHHHH | not failed |
| MFKNNDFIYIEYTAKIKDTGEIVDTTNEEEAKKANIYDETRNYGPRLVILGENRLIKGLEEALYNFNLNEEKTIEIPPEKAYGERDNSKIKIVPLGELRRQGITAVPNRVLRLSDGSLAVIRSVSGGRVVLDLNHPLAGRTLVYNVKVVKVLNNAKDKIMALIERRFSSKYANGFNVELDDGKKSVRITIPKDLYLVEDLQINVYSLAYEIVNYVLADYTVEVLQQYNKSTFSSS | failed |
| MKNEGKKGTEQAKKPEKTKITENEINGNESGKQSFEVDRRSVYRCVQCGTCRSVCPVFDVVGWESANTRGRMLIIKSLLEGRPPSEDMLPSLASCTTCGICAVKCPAGVKPPKVVEAARAQLVKCGITTEAQKNLKSTIMTYGNSFGETRDRKHWLSEVERSQLPEKSDYVYFVGCFDSYRYPEFAKKTFGILQQFGVTLLPDEQCCASPLLRTGFKEDAEKVMKHNLEQIRKVGAHTIITSCAGCYTTLKNNYPEELKVISLPEFLVEHLEELNLKKLDLTVTYHDPCHLGRHNKVYDAPRKVIQAICTLKEMKYIKENARCCGGGGGVRTGYPDISLELARNRLKDVPEGVDYIVTSCPLCVRNLRDAGGDIEVIDIVELVAMAME | failed |
| ARHPQRVVAAILVAPASPESFSENGHILPEHDDTPTIRNLLPKQTLGICGLVIASENDPWMPFNQAASLAKSFGLPTINLGLSGHINVDSGHGQWPLIDVLVGNFL | failed |
| MRGKQSHMSCEHYSNNCLVRFECCSSLYPCRLCHDKAEAHRANRYEVSQIVCGTCNLLQPKTQTCLQCLAAVSKYFCSKCNLWDSSDDQIFHCDGCNVCRRGDPKSSFHCDICQTCLVTRGPRDHTHVENTASGNCPICAEEMSESMEVLVLLRCGHSLHERCFNEFIKETYTCPMCSKPIGDTSIINRKVECLLGMEPPSPEQSPKNIAKCTNCNNLSKCGAIQNKCPFCGLRGVVDAAQEKNVKSQCLKPEE | failed |
| NLLDDAVKRISEDPPCKCPTKFCVERLSQGRYRVGEKILFIRMLHNKHVMVRVGGGWETFAGYLLKHDPCRMLQISRVDGKTSP | not failed |
| MEKRQDNNEIERRILKYEQYVKEHPKKAYGYYCLGRLHMMDGKYKLAEEYFKKSLAVDGNYTFSIIGLIEACVFRRKFLKAVYLFSKNRQKIIDKYIYRVKLVRGVSSFYSKSGFFRTEAKDFLSQLSLKNSIRSIKKLVDSEANNIVLKLILCMYYLNFGEKSFYIIQLFKTCIYWDGLEDSFRWALIRRLSEFGEKLYYDANIARKFATVPDASCTDEYVDLIFSSALDREKGGRMADIYRTAEKYNKNISPRLIWRYVKWSNENSFYDPSVYDCCKKLVDMGWMDSVVADTMLKFRERNAVKLGDETERALRLFGYMD | failed |
| TGALMASSPQDIKFQDLVVFILEKKMGTTRRALLMELARRKGFRVENELSDSVTHIVAENNSGSDVLEWLQAQKVQVSSQPELLDVSWLIECIGAGKPVEMTGKHQL | not failed |
| MTTAYNHLCTAFTRLSRFEHLSAIAGWDMQTMMPAKGNLARSEAMAELNVLQHQILTAPQIGEWLKQAEQELLDEQSIDELKLANLREMHRHYHNAVLLPESLVEAKSLAGARCEHAWRQQRIANDWAGFAENLREVVKLSREEAKIRAEAAGTSGYDALLNLYEPGTNSADIDRIFGDLKQWLPALLQKVTTKQQSSEPCLIPQGPFDLEKQRQLGLSVMKVLGFDFNGGRVDVSVHPFCGGVPQDVRITTRYNNQEFLSALMGIVHETGHARYEQNLPREWLGQPIAHARSTAIHESQSLLFEMQLARSNEFLQVIHPLVIQQFGEQPAFAEHNFIALNQRVKTGLIRVDADEVSYPAHVILRYEIEKALIGGEIDVEDIPALWNEKMQQYLGINTEGDYRNGCMQDIHWTDGAFGYFPTYTLGAMYAAQLFHAARSAIPALDSHIANGNLAPLLNWLQQNIWQHGSRYPTAELITKATGEPLNPRYFRQHLERRYL | failed |
| MDIDLSAFHFLRPWWLLAVPLAALLWWARRGERGAPGRDLRIAPALLPYLVLRTPGSRGPRPIDALALFLALGGVAAAGPAWQRDEPAYLDNVAPLIVALDLSASMDGADVPPTRLEAARRVLRDLAARRAAARTGLIAYAGSSHLVLPPTDDAALLDLFAQALATGLIERPGRDADGAIALAAQALAAERAGGTLLILTDGADRARMDAVRRQAQAARDMQVLVMAVGVNGIDTQALQELARAAGAALGSLTGGPDDQDWIALHAQAHFRAVQDAQSGPVHWKDAGYWLCWPLALLALLAVRRGWSVAWSAGVLVVAMAGMPQPARADALADAFLTADQQGRRAFEHGRYDAAARHFHDPNWKGRAAYQAGDYRAALAAFSTLPSAEGYFYVGNTQTRLHRYDAALAAYDRALALRPGWQPAVVNRGIVARLLAAMAQTQQDQPAEPPDRTIADRSAQAGKMSQAPVAQAGSEEAWLRNLTLSPARFLRSKFAVEDAAAGTRP | failed |
| MIQKQHESKLEVGQTFPVTIKRLGINGEGVGYFKRQVVFIPGALPGEEVVAETTKIQRGFAEAKVKKVRKASPHRVKAPCPVYEECGGCQLQHLDYKEQLNQKRDIVVQAFEKYMKNSMEEKIRPTLGMENPWHYRNKSQLQVGRKDEKVITGLYKQNSHQLIDIAHCMIQHKATNEATKVVRRILEKLNVSIYNEKKQKGLVRTIVTRTAVQTGEVQVTLITTKEELPNKEQFIAEVQKQMPAVKSIMQNVNWRKTSVIFGDKTFKLAGKEVIQETLGDLSFELSARAFFQLNPEQTVVLYNEAKKAAALTGNEKIVDAYCGVGTIGLWLANDAAEVRGMDVIPEAIADARKNAKRHGFTNTKYEAGKAEQWLPKWVKEGWRPDVIVVDPPRTGCDDKLLETILKVKPKQVVYVSCNPSSLARDVQALMKSYEVEYVQPVDMFPHTAHVENVVKLTLK | failed |
| MPGPKKPVTPEDIIRLTFVSNPSVSPEGDKVAYLATKADEKENTYRSGIWLAEEDSYRPLTGGPYDRCPAWSPDGEIIAFSRTVNSNQRKRHYIAIVSPKGGEPQVLHESVSPATSIKWSSQGSMIGYLSRKPTGREWKPYSERDVLEIDRIPVWFDSEGWVFDRYWGLTVISYPGGEVLLEKGGVNYNIVDFDFAPDDNTIVYAVSTDMKKPFIHKLVLWDLASGREKTLIEGLTIAAVAFDPRGRYIAVKANDRKRGLFSHYKIFVYDLNSEEFVCLTCDLDLNTLNTVNSDARGPSCLRGMYWDDNGHLYYGVHNAGRMVVMKSRPLGEAEAVLDPSSATVDDFSISRGGDTIAYVKMGPTSPPDIYIYRDDNEYRLTDHNAWFAESRSLAEPVRLQVQSPLGGSIDAWILLPPDAGECSGCLPWILYIHGGPKTSYGYAFIHEFQMLASQGFAVIYSNPRGSDGYSEEFADLRGRYGVDDYSELMKVVDEALSDFPQLDPQRGGVTGGSYGGYMTNVIVTKTRRFKAAVTQRSCSNWISFYGESDIGWYFAPELISAQEPWRDLEKYVDFSPLFSVENIETPLLIIHSTEDFRCPLSGAIQLFTALKLKGVETRLLVFPGENHNLSRSGTPKRRVARLRAIASWFKEHLGSQQRG | failed |
| MKIIENYKGLPKSIYFLFLVQVINRLGDFVFPFLSLLLTQKLKFSMATTGTIVMIASVVGVPASFIGGKIADKSSRKLTYILGQSFAAIVILICGFINIPNLTVALLIASSFFNGFVRPTISAMVADLLPASKRQMGSSLLYLGINFGVAVGPIIAGFLFNNYLSLLFIIDALTSFIAVIIVLILIPDTKAVKHVGEDRIEEKEEKGNLLQILLKRPFVICFFGVDMIYSLAYRQCSFSMPIMMNKVFGYSGSSKYGFLMSVNALTVVALTIFVMHVTKRFRTLTNMAFSGLFYAVGFGMISIIGNSYLLFIISTVIWTMGEILGATNFGVYLANNSPRNCRARFGAVGELISSIGGAIGIFGAGKLIESYGINMIWRVIFIIVLLGAGLMLTLQYFQTKRVEQKIAHEI | failed |
